Results on three molecules are retold here after patent US20170312350A1.

In assay [1] the target is MHC/IGF2BP3-001 tetramer (human). Kind of assay: tetramer staining, flow cytometry of RNA-electroporated CD8+ T-cells.
The target in assay [2] is MHC/NYESO1-001 tetramer. Kind of assay: tetramer staining, flow cytometry of RNA-electroporated CD8+ T-cells (unrelated-peptide tetramer).
Assay [3] addresses MHC/IGF2BP3-001 tetramer (human). Kind of assay: tetramer binding by flow cytometry, lentivirally transduced primary T-cells, donor 1.
The target is the same in assay [4]. Kind of assay: tetramer binding by flow cytometry, lentivirally transduced primary T-cells, donor 2.

B1: TCR R10P1A7 (TCR, V domains shown)
V domain 1: GEDVEQSLFLSVREGDSSVINCTYTDSSSTYLYWYKQEPGAGLQLLTYIFSNMDMKQDQRLTVLLNKKDKHLSLRIADTQTGDSAIYFCAESKETRLMFGDGTQLVVKP
V domain 2: GAVVSQHPSWVICKSGTSVKIECRSLDFQATTMFWYRQFPKQSLMLMATSNEGSKATYEQGVEKDKFLINHASLTLSTLTVTSAHPEDSSFYICSARAGGHEQFFGPGTRLTVLE
Turning to B1, the % IGF2BP3-001 TET-positive primary CD8+ T-cells in assay [1] was 6.78%. In assay [2], this molecule yielded a % NYESO1-001 TET-positive primary CD8+ T-cells of 1.53%.

B2: TCR R10P1A7 expressed from lentiviral construct 1864R (MSCV-R10P1A7B-2A-R10P1A7A-WPRE) (TCR, V domains shown)
V domain 1: B1 V domain 1
V domain 2: B1 V domain 2
In assay [3], B2 registered a % of CD3+ Tet+ of 15.2% and a % of CD8+ Tet+ of 22%. Besides, in assay [4], the % of CD3+ Tet+ turned out to be 8.12% and the % of CD8+ Tet+ amounted to 11.7%.

B3: TCR R10P1A7 expressed from lentiviral construct 1863R (MSCV-R10P1A7A-2A-R10P1A7B-WPRE) (TCR, V domains shown)
V domain 1: B1 V domain 1
V domain 2: B1 V domain 2
In assay [3], B3 returned a % of CD3+ Tet+ of 2.3% and a % of CD8+ Tet+ of 3.93%. In assay [4], this molecule returned a % of CD3+ Tet+ of 0.99% and a % of CD8+ Tet+ of 1.79%.
